From patent publication US20170183388A1 (REGENTS OF THE UNIVERSITY OF COLORADO A BODY CORPORATE, published 2017) come the findings set out here.

Assay [1] addresses T1, BioPure recombinant Aβ42 (UniProt P05067 672-713).
T1 construct: domain: Aβ(1-42); Recombinant peptide from AmideBio, coupled to AminoLink resin or to SPR chips by EDC-NHS; For treating neurons the peptide came from R Peptide or AmideBio; also called Aβ(1-42); amyloid β
The assay can be described thus: pull-down of whole brain synaptosome proteins on Aβ42 coupled to AminoLink resin, western blot [A]. For orientation: Immunoblotting shows a protein as a band on a membrane.

The target in assay [2] is T1, BioPure recombinant Aβ42. The assay can be described thus: Aβ42 coupled to AminoLink resin, mouse whole brain synaptosome extract, western blot.

T1 sequence (P05067 672-713 limits assumed): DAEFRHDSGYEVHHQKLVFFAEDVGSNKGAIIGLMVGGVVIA

B1: Mouse synaptogyrin1 (endogenous, from brain synaptosomes) (other, UniProt O55100 1-234, looked up)
chain: MEGGAYGAGKAGGAFDPYTLVRQPHTILRVVSWVFSIVVFGSIVNEGYLNNPEEEEEFCIYNRNPNACSYGVTVGVLAFLTCLLYLALDVYFPQISSVKDRKKAVLSDIGVSAFWAFFWFVGFCFLANQWQVSKPKDNPLNEGTDAARAAIAFSFFSIFTWAGQAVLAFQRYQIGADSALFSQDYMDPSQDSSMPYAPYVEPSAGSDPAGMGGTYQHPANAFDAEPQGYQSQGY
notes: SYP paralog, 22% identity as printed; also called SNG1; synaptogyrinl
Turning to B1, in the assay with BioPure recombinant Aβ42 [1], the binding result is listed as “no binding”.

B2: Mouse synaptophysin (endogenous, from brain synaptosomes or cultured neurons) (other, UniProt Q62277 1-314, looked up)
chain: MLLLADMDVVNQLVAGGQFRVVKEPLGFVKVLQWVFAIFAFATCGSYTGELRLSVECANKTESALNIEVEFEYPFRLHQVYFDAPSCVKGGTTKIFLVGDYSSSAEFFVTVAVFAFLYSMGALATYIFLQNKYRENNKGPMMDFLATAVFAFMWLVSSSAWAKGLSDVKMATDPENIIKEMPMCRQTGNTCKELRDPVTSGLNTSVVFGFLNLVLWVGNLWFVFKETGWAAPFMRAPPGAPEKQPAPGDAYGDAGYGQGPGGYGPQDSYGPQGGYQPDYGQPASGGGGGYGPQGDYGQQGYGQQGAPTSFSNQM
notes: Endogenous protein detected by western blot; also called SYP; Syp
Turning to B2, the binding result in the assay with BioPure recombinant Aβ42 [2] is “binds”.

B3: Mouse MAP2 (endogenous, from brain synaptosomes) (other, UniProt P20357 1-1828, looked up)
chain: MADERKDEGKAPHWTSASLTEAAAHPHSPEMKDQGGAGEGLSRNANGFPYREEEEGAFGEHRSQGTYSDTKENGINGELTSADRETAEEVSARIVQVVTAEAVAVLKGEQEKEAQHKDQPAALPLAAEETANLPPSPPPSPASEQTATVEEDLLTASKMEFPEQEKFPSSFAEPLDKGEMEFKMPSKPGEDFEHAALVPDTSKTPQDKKDLQGMEGEKLPPVPFAQTFGTNLEDRKQSTEPSIVMPSIGLSAEPPAPKEPKDWFIEMPTESKKDEWGLAAPISPGPLTPMREKDVLEDIPRWEGKQFDSPMPSPFHGGSFTLPLDTMKNERVSEGPRPFAPVFFQSDDKVSLQDPSALATSKESSKDEEPLKDKADKVADVSISEVTTLLGNVHSPVVEGYVGENISGEVKVTTDQEKKETSAPSVQEPTLTETEPQTKLDEKSTVSIEEAVAKKEESFKLRDDKTGVIQTSTEQSFSKEDQKGQEHTIDELKQDSFPISLEQAVTDAAMTSKTLGKVTSEPEAVSERREIQGLFEEKTADKNKLEGAGSATIAEVEMPFYEDKSGMSKYFETSALKEDMTRSTELGSDYYELSDSRGSAQESLDTISPKNQHDEKELQAKASQPSPPAQEAGYSTLAQSYTPDHPSELPEEPSSPQERMFTIDPKVYGEKRDLHSKNKDDLTLSRSLGLGGRSAIEQRSMSINLPMSCLDSIALGFNFGRGHDLSPLASDILTNTSGSMDEGDDYLPPTTPAVEKMPCFPIESKEEEDKAEQAKVTGGQTIQVETSSESPFPAKEYYKNGTVMAPDLPEMLDLAGTRSRLASVSADAEVARRKSVPSEAMLAESSTSLPPVADESPVTVKPDSQLEDMGYCVFNKYTVPLPSPVQDSENLSGESGSFYEGTDDKVRRDLATDLSLIEVKLAAAGRVKDEFTAEKEASPPTSADKSRLSREFDHDRKANDKLDTVLEKSEEHIDSKEHAKESEEMGGKVELFGLGITYDQASTKELITTKDTSPEKTEKGLSSVPEVAEVEPTTKADQGLDFAATKAEPSQLDIKVSDFGQMASGMNVDAGKAIELKFEVAQELTLSSEAPQEADSFMGVESGHIKEGGKVNETEVKEKVTKPDLVHQEAVDKEESYESSGEHESLTMESLKPDEGKKETSPETSLIQDEVALKLSVEIPCPPPVSEADLSTDEKGEVQMEFIQLPKEESTETPDIPAIPSDVTQPQPEAIVSEPAEVPSEEEEIEAGGEYDKLLFRSDTLQISDLLVSESREEFVETCPGELKGVVESVVTIEDDFITVVQTTTDEGESGSHSVRFAAPAQPEEERRPRPHDEELEIEMAAEAQAEPKDGSPDAPATPEKEEVAFSEYKTETYDDYKDETTIDDSIMDADSLWVDTQDDDRSILTEQLETIPKEERAEKDARRPSLEKHRKEKPFKTGRGRISTPERKVAKKEPSTVSRDEVRRKKAVYKKAELAKKSEVQAHSPSRKLILKPAIKYTRPTHLSCVKRKTTAASGDLAQAPGAFKQAKDKVTDGISKSPEKRSSLPRPSSILPPRRGVSGDREENSFSLNSSISSARRTTRSEPIRRAGKSGTSTPTTPGSTAITPGTPPSYSSRTPGTPGTPSYPRTPGTPKSGILVPSEKKVAIIRTPPKSPATPKQLRLINQPLPDLKNVKSKIGSTDNIKYQPKGGQVQIVTKKIDLSHVTSKCGSLKNIRHRPGGGRVKIESVKLDFKEKAQAKVGSLDNAHHVPGGGNVKIDSQKLNFREHAKARVDHGAEIITQSPSRSSVASPRRLSNVSSSGSINLLESPQLATLAEDVTAALAKQGL
notes: Loading control; also called loading control
As for B3, the binding result with BioPure recombinant Aβ42 [1] was “no binding”.

B4: Mouse synaptoporin (endogenous, from brain synaptosomes) (other, UniProt Q8BGN8 1-265, looked up)
chain: MCMVIFAPLFAMFAFATCGGYSGGLRLSVDCVNKTESNLSIDIAFAYPFRLQQVTFEVPTCEGKEQQKLALVGDSSSSAEFFVTVAVFAFLYSLAATVVYIFFQNKYRENNRGPLIDFIVTVVFSFLWLVGSSAWAKGLSDVKVATDPKEVLLLMSACKQPSNKCMAVHSPVMSSLNTSVVFGFLNFILWAGNIWFVFKETGWHSSGQRYLSDPMEKHSSSYNQGRYNQESYGSSGGYSQQANLGPTSDEFGQQPSGPTSFNNQI
notes: SYP paralog, 62% identity as printed; also called SYNPR
As to B4, the binding result with BioPure recombinant Aβ42 [1] is on record as “no binding”.
